Measurements published in patent publication EP4302836A1 (Danmarks Tekniske Universitet, dated 2024).
Positions count from the first letter of the chain named.

B1: TPL0039_05_G08 IgG (antibody, V domains shown)
VH: EVQLVESGGGVVQPGRSLRLSCAASGFTFSSYGMHWVRQAPGKGLEWVAVISYDGSNKYYADSVKGRFTISRDNSKNTLYLQMNSLRAEDTAVYYCARTNYDSGDAFDIWGQGTLVTVSS
VL: NFMLTQPHSVSESPGKTVTISCTRSSGSIASNYVQWYQQRPGSSPTTVIYEDNQRPSGVPDRFSGSIDSSSNSASLTISGLKTEDEADYYCQSYDSSTVVFGGGTKLTVLG
B2: TPL0039_05_B12 IgG (antibody, V domains shown)
VH: EVQLVESGGGVVQPGRSLRLSCAASGFTFSSYGMHWVRQAPGKGLEWVAVISYDGSNKYYADSVKGRFTISRDNSKNTLYLQMNSLRAEDTAVYYCAGWTEGDAFDIWGQGTLVTVSS
VL: B1 VL with S44A, T46S, Q54R, S70A, T98S, L107I
B3: TPL0039_05_A03 IgG (antibody, V domains shown)
VH: QVQLVESGGGLAKPGRSLRLSCAVSGFTFSSYGMHWVRQAPGKGLEWVAVISYDGSNKYYADSVKGRFTISRDNSKNTLYLQMNSLRAEDTAVYYCASTLQQLDAFDIWGQGTMVTVSS
VL: B1 VL with V18I, S44V, T47P, N53D, Q54R, T98S, L107I
B4: TPL0039_05_F04 scFv (scFv, V domains shown)
VH: QVQLVESGGGVVQPGRSPRLSCAASGFTFSSYGMHWVRQAPGKGLEWVAVISYDGSNKYYADSVKGRFTISRDNSKNTLYLQMNSLRAEDTAVYYCAKDLEYSSSSWGQGTLVTVSS
VL: B1 VL with Y37F, N53D, D88T, Y90F, L107V
B5: TPL0039_05_F04 IgG (antibody, V domains shown)
VH: B4 VH
VL: B1 VL with Y37F, N53D, D88T, Y90F, L107V
B6: TPL0039_05_B04 IgG (antibody, V domains shown)
VH: B2 VH with V5L, G98R, W99V, T100G, G102N, D103E, L113M
VL: B1 VL with S31R, S44A

Key:
[1] = molecular target: T1, Myotoxin II from Bothrops asper (Basic phospholipase A2 homolog 2, Uniprot P24605) (Bothrops asper, UniProt P24605 17-137); assay: cell-based or functional assay
[2] = molecular target: T1, Myotoxin II from Bothrops asper (Basic …); assay: expression-normalized capture (ENC) assay, antigen at 10 nM (data not shown)
[3] = molecular target: T1, Myotoxin II from Bothrops asper (Basic …); assay: monoclonal IgG ELISA, dilution series (Fig. 2A legend)

T1 sequence (P24605 17-137, one chain of several): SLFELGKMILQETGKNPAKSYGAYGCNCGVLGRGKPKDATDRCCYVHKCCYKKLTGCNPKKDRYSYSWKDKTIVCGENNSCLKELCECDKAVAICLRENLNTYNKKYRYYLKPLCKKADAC

Row | Binder | fibroblast viability assay (CellTiter-Glo), toxin:IgG ratio for full neutralization [1] | also measured
1 | B1 | 1 mol IgG per mol toxin (printed as toxin:IgG 1:1) | –
2 | B2 | 0.5 mol IgG per mol toxin (printed as toxin:IgG 1:0.5) | –
3 | B3 | 0.5 mol IgG per mol toxin (printed as toxin:IgG 1:0.5) | –
4 | B4 | – | binding result [2]: binds
5 | B5 | – | binding result [3]: binds
6 | B6 | 0.5 mol IgG per mol toxin (printed as toxin:IgG 1:0.5) | –
